Test results from article PMC6718376.

Tests used:
[1] = biological target: respiratory syncytial virus protein F (respiratory syncytial virus) (UniProt P03420); experiment: plasmonic light-scattering biosensor array (localised gold nanoparticle plasmon); Fab assay: RSVF immobilised on array spots by EDC/NHS coupling, BSA reference spots and BSA blocking; NISTmAb injected at 1.56, 3.23 and 6.25 nM in PBS; global fit to the Langmuir 1:1 model
[2] = biological target: Pierce recombinant protein A/G; experiment: plasmonic light-scattering biosensor array (localised gold nanoparticle plasmon); Fc assay: protein A/G immobilised on array spots by EDC/NHS coupling, BSA reference spots and BSA blocking; antibody in PBS; NISTmAb kinetics from a global Langmuir fit to low concentrations with ϑm floating; all antibody samples at 100 nM for 300 s, 500 s wash
[3] = biological target: NISTmAb (NIST RM 8671), recombinant humanized IgG1κ specific to respiratory syncytial virus protein F (human (humanized IgG1κ)); experiment: plasmonic light-scattering biosensor array (localised gold nanoparticle plasmon); antigen assay: antibody (100 nM) first captured by its Fc on the protein A/G surface, then antigen at 100 nM in PBS injected for 300 s; stoichiometry from ϑm antigen/ϑm Fc normalised for the masses of antigen and intact IgG
NISTmAb (NIST RM 8671), recombinant humanized IgG1κ specific to respiratory syncytial virus protein F (human (humanized IgG1κ)), sequence (heavy, as listed by the source, chain 1 of 2): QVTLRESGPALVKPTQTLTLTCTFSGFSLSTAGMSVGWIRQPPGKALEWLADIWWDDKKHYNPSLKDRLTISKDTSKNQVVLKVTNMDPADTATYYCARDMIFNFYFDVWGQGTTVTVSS
NISTmAb (NIST RM 8671), recombinant humanized IgG1κ specific to respiratory syncytial virus protein F (human (humanized IgG1κ)), sequence (light, as listed by the source, chain 2 of 2): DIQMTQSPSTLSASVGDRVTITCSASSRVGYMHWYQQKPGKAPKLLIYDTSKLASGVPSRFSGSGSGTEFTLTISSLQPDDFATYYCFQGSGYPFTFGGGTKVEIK

| Substance | Kd [1] | koff [1] | kon [1] | koff [2] | kon [2] | stoichiometry N (antigens per antibody) [3] |
| --- | --- | --- | --- | --- | --- | --- |
| NISTmAb (NIST RM 8671), recombinant humanized IgG1κ specific to respiratory syncytial virus protein F (antibody) | 2.7 nM | 0.00024 s⁻¹ | 89000 M⁻¹ s⁻¹ | 2e-05 s⁻¹ | 59000 M⁻¹ s⁻¹ |  |
| respiratory syncytial virus protein F (from UniProt P03420 26-574) (natural protein) |  |  |  |  |  | 1.31 |
